For one substance, percent of total detected EGFR events that are EGF-EGFR and percent of total detected EGFR events that are EGF-EGFR-pTyr1068 results are on record in article PMC4120848.

Where two headings read alike, the source gives them in different places.

Assay in all cases: mMAPS
For assay [1], the target named is endogenous EGFR (HeLa cells) (human (endogenous in HeLa)) (UniProt P00533).
Assay [2] deals with endogenous EGFR phosphorylated at Tyr1068 (HeLa cells) (human (endogenous in HeLa)) (UniProt P00533).
The target in assay [3] is endogenous EGFR (HeLa cells) (human (endogenous in HeLa)) (UniProt P00533). The source holds these as a separate data set.
The target in assay [4] is endogenous EGFR phosphorylated at Tyr1068 (HeLa cells) (human (endogenous in HeLa)) (UniProt P00533). The source holds these as a separate data set.

Turning to A647-conjugated EGF (ligand), the results for the percent of total detected EGFR events that are EGF-EGFR in assay [1] and in assay [3] were 4.35% and 3.3%, respectively. For the same substance, the percent of total detected EGFR events that are EGF-EGFR-pTyr1068 in assay [2] was 2.64%; in assay [4] it was 1.27%.
